Experiments:
[1] = molecular target: Monomannosylated BSA (monomannose conjugated to bovine serum albumin) (bovine) (UniProt P02769); experiment: parallel plate flow chamber; new bacteria appearing on 1Man-BSA surface
[2] = molecular target: Monomannosylated BSA (monomannose conjugated to bovine serum albumin) (bovine) (UniProt P02769)

Monomannosylated BSA (monomannose conjugated to bovine serum albumin) (bovine), sequence (P02769 25-607 limits assumed): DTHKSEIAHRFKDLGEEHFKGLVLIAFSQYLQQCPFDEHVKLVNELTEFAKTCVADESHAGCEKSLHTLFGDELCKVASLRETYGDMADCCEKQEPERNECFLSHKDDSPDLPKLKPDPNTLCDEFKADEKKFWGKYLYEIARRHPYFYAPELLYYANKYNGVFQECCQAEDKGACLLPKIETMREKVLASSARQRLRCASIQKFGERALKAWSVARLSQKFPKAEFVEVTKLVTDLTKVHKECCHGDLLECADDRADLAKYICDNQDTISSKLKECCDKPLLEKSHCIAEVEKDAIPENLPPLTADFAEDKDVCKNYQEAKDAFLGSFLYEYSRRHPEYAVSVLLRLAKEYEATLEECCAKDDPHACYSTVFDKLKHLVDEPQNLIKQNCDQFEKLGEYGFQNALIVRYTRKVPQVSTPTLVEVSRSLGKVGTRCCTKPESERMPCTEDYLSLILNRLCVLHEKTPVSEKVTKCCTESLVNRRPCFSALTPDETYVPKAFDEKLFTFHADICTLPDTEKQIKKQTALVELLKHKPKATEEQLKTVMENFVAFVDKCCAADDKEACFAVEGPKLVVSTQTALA

Substance “FimH-f18 (FimH adhesin variant of intestinal E. coli strain F18), in type I fimbriae on recombinant E. coli (from UniProt P08191 22-300)” has an initial attachments per minute in the field of view, at 0.5 dynes/cm^2 (attachments per minute) [1] of 102, an initial attachments per minute in the field of view, at 3.6 dynes/cm^2 (attachments per minute) [1] of 64 and an initial attachments per minute in the field of view, at 7 dynes/cm^2 (attachments per minute) [1] of 32. For the same substance, the first-order rate constant of the decline of stationary bacteria [2] was 3 s⁻¹.
